Patent publication US20170166895
pIC50, pKd: −log10 of the molar value.

How the values were obtained:
[1] = target: T1, Complement component 3 (C3) (Homo sapiens) (UniProt P01024+P01024); test: filter; details: all U = NapdU, 3'-3' idT, SB18T0.01, 37C
[2] = target: T1, Complement component 3 (C3) (Homo sapiens); test: inhibition; details: P = NapdU (all U), 3'-3' idT, hemolysis, 20 nM C3, GVB++, 37 C
[3] = 2'-OMe at 1,2,3,5,7,10,13,26,27,28

T1 sequence (P01024 23-667, chain 1 of 2): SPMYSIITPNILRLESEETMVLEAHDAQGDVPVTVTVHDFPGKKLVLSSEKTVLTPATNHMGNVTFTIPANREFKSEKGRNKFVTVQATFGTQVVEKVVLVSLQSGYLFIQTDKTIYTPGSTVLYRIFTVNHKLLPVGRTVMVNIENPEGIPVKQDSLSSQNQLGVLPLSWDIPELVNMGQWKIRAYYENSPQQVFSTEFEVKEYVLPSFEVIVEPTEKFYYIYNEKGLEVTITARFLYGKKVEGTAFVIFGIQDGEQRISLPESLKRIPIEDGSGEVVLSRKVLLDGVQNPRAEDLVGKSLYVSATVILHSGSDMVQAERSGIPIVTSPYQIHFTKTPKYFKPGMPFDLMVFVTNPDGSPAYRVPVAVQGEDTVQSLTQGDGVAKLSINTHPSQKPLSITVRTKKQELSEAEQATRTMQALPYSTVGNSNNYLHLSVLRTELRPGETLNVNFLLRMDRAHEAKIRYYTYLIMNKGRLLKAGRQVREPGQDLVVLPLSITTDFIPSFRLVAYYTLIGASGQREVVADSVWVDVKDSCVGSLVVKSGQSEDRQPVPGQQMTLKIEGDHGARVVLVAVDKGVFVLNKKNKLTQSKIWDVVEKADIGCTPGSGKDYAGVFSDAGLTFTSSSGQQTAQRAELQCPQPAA
T1 sequence (P01024 672-1663, chain 2 of 2): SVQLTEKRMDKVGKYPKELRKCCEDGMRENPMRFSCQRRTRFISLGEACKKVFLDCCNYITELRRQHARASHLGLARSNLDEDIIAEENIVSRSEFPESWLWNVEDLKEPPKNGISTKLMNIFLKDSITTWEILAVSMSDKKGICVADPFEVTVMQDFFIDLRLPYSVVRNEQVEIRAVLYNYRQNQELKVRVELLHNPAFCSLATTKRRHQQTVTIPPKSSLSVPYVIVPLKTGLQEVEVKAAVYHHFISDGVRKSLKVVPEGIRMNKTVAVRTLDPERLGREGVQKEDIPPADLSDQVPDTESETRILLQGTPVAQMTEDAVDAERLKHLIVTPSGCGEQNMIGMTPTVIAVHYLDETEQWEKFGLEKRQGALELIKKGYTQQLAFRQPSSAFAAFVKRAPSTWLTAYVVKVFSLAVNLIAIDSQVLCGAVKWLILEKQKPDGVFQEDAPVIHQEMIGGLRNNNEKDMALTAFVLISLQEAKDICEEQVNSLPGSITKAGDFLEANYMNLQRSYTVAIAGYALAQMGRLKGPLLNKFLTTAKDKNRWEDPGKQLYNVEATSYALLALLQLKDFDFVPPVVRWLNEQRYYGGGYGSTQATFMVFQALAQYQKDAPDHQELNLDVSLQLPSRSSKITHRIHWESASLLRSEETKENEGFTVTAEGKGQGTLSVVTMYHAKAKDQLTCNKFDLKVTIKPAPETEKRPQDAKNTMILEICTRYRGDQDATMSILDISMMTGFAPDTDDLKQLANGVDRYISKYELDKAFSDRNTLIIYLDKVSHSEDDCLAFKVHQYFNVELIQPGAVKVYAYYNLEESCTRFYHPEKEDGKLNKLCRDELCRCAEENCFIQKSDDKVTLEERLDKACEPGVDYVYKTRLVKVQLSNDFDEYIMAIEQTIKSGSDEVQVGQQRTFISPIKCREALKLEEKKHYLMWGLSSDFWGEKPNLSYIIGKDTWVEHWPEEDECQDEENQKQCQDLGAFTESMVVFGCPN

Sequence | pKd [1, 3] | pIC50 [2, 3] | pKd [1] | pIC50 [2]
CGGUGACUCAAUAGUCCGUACGUUCCCG [8491-94_90] | 11.37 | 7.72 | – | –
CCGGUGACUCAAUAGUCCGUACGUUCCCGG [8491-94_26] | – | – | 10.29 | 7.82
CCGGUGACUCAAUAGUCCGUACGUUCCCG [8491-94_27] | – | – | 10.18 | 7.61
CGGUGACUCAAUAGUCCGUACGUUCCCG [8491-94_53] | – | – | 10.48 | 7.77
